The target in data set [1] is UBCH5B (ubiquitin-conjugating enzyme E2 D2) (human, UniProt P62837 1-147). In words: AUC.
The data set “AUC” concerns the molecule itself. Description: AUC.

B1: RING finger protein 4 (RNF4) (enzyme, human, UniProt P78317 1-190, looked up)
chain: MSTRKRRGGAINSRQAQKRTREATSTPEISLEAEPIELVETAGDEIVDLTCESLEPVVVDLTHNDSVVIVDERRRPRRNARRLPQDHADSCVVSSDDEELSRDRDVYVTTHTPRNARDEGATGLRPSGTVSCPICMDGYSEIVQNGRLIVSTECGHVFCSQCLRDSLKNANTCPTCRKKINHKRYHPIYI
B1 gave a Kd in data set [1] of 15 µM. Besides, the “stoichiometry N” value in “AUC” stood at 2.

A word on the Kd: it is the equilibrium constant for the complex coming apart. High values mean lower affinity, low ones higher affinity. For orientation: stoichiometry N means the number of molecules, sites or subunits per partner or assembly.

The record behind these values is article PMC5115946 (Journal of molecular biology, 2016).
